This note sets out measurements from patent US20150098945A1 (Daiichi Sankyo, published 2015).

The test has as its target T1, mouse ROBO4 (pCI-mROBO4-transfected HEK293 cells) (mouse, UniProt Q8C310 28-1012).
T1 sequence: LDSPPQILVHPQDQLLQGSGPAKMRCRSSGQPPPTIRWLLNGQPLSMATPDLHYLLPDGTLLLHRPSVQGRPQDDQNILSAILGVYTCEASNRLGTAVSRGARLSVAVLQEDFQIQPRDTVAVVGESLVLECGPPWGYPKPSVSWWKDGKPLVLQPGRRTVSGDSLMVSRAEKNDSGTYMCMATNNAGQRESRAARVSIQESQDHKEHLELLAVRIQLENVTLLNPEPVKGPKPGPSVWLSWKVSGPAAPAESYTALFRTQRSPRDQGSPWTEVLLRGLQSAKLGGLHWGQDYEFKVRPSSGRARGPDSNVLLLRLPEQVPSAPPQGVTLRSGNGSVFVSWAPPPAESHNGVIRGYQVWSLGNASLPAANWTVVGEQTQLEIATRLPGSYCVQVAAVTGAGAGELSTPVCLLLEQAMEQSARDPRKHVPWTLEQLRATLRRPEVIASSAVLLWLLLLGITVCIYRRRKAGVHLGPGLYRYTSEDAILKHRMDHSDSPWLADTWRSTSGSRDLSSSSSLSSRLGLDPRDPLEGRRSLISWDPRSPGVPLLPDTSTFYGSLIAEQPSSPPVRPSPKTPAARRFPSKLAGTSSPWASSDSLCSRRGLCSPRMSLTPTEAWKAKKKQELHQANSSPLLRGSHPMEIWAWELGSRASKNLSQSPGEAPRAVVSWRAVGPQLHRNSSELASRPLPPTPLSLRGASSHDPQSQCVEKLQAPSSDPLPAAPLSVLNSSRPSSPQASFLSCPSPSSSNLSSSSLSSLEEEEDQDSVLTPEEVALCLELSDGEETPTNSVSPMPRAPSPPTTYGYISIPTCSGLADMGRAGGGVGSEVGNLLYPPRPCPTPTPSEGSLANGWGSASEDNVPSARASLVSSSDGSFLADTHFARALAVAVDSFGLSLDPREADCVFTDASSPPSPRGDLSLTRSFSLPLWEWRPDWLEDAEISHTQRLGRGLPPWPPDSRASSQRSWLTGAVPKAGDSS
The test is described as follows: flow cytometry, HEK293 cells transfected with pCI-mROBO4, anti-mouse IgG FITC; control histogram IgG (Mouse IgG2a). The method, then: HEK293 cells were inoculated at a concentration of 1.5×10⁶ cells/dish to a 60-mm dish (manufactured by Corning Inc.) and cultured overnight in a DMEM medium containing 10% FBS at 37° C. under 5% CO₂ conditions. On the next day, the HEK293 cells were transfected with pCI-hROBO4, pCI-mROBO4, pCI-raROBO4, pCI-FLAG-cynoROBO4-1, pCI-FLAG-cynoROBO4-2, pCI-hROBO1, pCI-hROBO2, or pCI-hROBO3 using FuGENE6 Transfection Reagent and further cultured overnight at 37° C. under 5% CO₂ conditions. On the next day, the expression vector-transfected cells were treated with TrypLE Express (manufactured by Life Technologies Corp.), washed with PBS containing 5% FBS, and then suspended in PBS containing 5% FBS. The obtained cell suspension was used in flow cytometry analysis.
Each cell suspension prepared in 4)-3-1 was centrifuged, and the supernatant was removed. Then, MAb1 or a negative control Mouse IgG2a was added at a concentration of 10 μg/mL to 2×10⁵ expression vector-transfected cells, and the resulting suspension was left standing at 4° C. for 1 hour. […] Data was analyzed using Flowjo. The histogram of FITC fluorescence intensity was prepared. The antibody was determined to bind in a cross-species manner when the histogram of MAb1 was shifted to a stronger fluorescence intensity region compared with the histogram of the negative control Mouse IgG2a.
(Flow cytometry measures light scatter and fluorescence of single cells or particles in a stream.)

B1: anti-ROBO4 mouse monoclonal antibody MAb1 (antibody, mouse IgG1, V domains shown)
VH: EVQLVESGGGLVKPGGSLKLSCAASGFTFSTYAMSWVRQTPEKRLEWVATISNGGTYTYYPDSVKGRFTISRDNAENTLYLQMSSLRSEDTAMYFCARLIYYDYLDYWGHGTTLTVSS
VL: DAVMTQTPLSLPVSLGDQASISCRSSQSLENSNGNTYLNWYFQKPGQSPQLLIYRVSNRFSGVLDRFSGSGSGTDFTLKISRVEAEDFGVYFCLQVTHVPWTFGGGTKLEIKR
notes: Mouse IgG1 (gamma1), kappa light chain, purified from hybridoma supernatant; also called parent antibody MAb1
For B1, the binding result is listed as “no binding (tested: 10 µg/mL)”.
